# Measurements from publication PMC9076029 (Journal of Molecular Biology, 2022).
# Where two headings read alike, the source gives them in different places.
# B1: LY-CoV016 single chain variable fragment (scFv, V domains shown)
# VH: EVQLVESGGGLVQPGGSLRLSCAASGFTVSSNYMSWVRQAPGKGLEWVSVIYSGGSTFYADSVKGRFTISRDNSMNTLFLQMNSLRAEDTAVYYCARVLPMYGDYLDYWGQGTLVTVSS
# VL: not shown
# B2: LY-CoV555 single chain variable fragment (scFv, V domains shown)
# VH: QVQLVQSGAEVKKPGSSVKVSCKASGGTFSNYAISWVRQAPGQGLEWMGRIIPILGIANYAQKFQGRVTITADKSTSTAYMELSSLRSEDTAVYYCARGYYEARHYYYYYAMDVWGQGTAVTVSS
# VL: not shown
# B3: REGN10987 single chain variable fragment (scFv, V domains shown)
# VH: QVQLVESGGGVVQPGRSLRLSCAASGFTFSNYAMYWVRQAPGKGLEWVAVISYDGSNKYYADSVKGRFTISRDNSKNTLYLQMNSLRTEDTAVYYCASGSDYGDYLLVYWGQGTLVTVSS
# VL: QSALTQPASVSGSPGQSITISCTGTSSDVGGYNYVSWYQQHPGKAPKLMIYDVSKRPSGVSNRFSGSKSGNTASLTISGLQSEDEADYYCNSLTSISTWVFGGGTKLTVL
# Tests used:
# Assay in all cases: ITC
# [1] = biological target: T1, SARS-CoV-2 spike protein receptor binding domain, wild-type (SARS-CoV-2, UniProt P0DTC2)
# [2] = biological target: T1, SARS-CoV-2 spike protein receptor …; remark: listed apart in the source
# [3] = biological target: T1, SARS-CoV-2 spike protein receptor …; remark: listed apart in the source
# [4] = biological target: T1, SARS-CoV-2 spike protein receptor …; remark: listed apart in the source
binder,measurement,setting,value
B1,Kd,[1],49.3 ± 10.1 nM
same,dH,[1],-11.7 ± 0.1 kcal/mol
B2,Kd,[2],3.8 ± 1.9 nM
same,Kd,[3],3.9 ± 1.9 nM
B3,Kd,[4],34.3 ± 8.1 nM
